Data published in paper PMC7532178, “Interaction of protocadherin-15 with the scaffold protein whirlin supports its anchoring of hair-bundle lateral links in cochlear hair cells” (Scientific Reports, 2020).
No end group written: not given here. *: point of attachment. Biotin = O=C1N[C@H]2[C@H](CS[C@H]2CCCCC(=O)*)N1; TTDS = trioxatridecan-succinamic acid spacer

T1: whirlin-PDZ3 (aa residues 821-915) (mouse, UniProt Q80VW5-1 821-915)
T1 construct: extra 7 aa at the N-terminus of all recombinant proteins of the study; whirlin, residues 821-915: PDZ3 domain, common to L- and S-whirlin; also called whirlin PDZ3 domain
T1 sequence: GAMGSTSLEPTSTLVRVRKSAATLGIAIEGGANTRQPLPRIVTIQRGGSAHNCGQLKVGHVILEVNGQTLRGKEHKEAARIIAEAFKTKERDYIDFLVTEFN

T2: whirlin-HHD1 (aa residues 30-121) (mouse, UniProt Q80VW5-1 30-121)
T2 construct: extra 7 aa at the N-terminus of all recombinant proteins of the study; whirlin, residues 30-121: harmonin-homology domain 1 (HHD1); also called HHD1 domain alone; source: E. coli BL21 (DE3) codonPlus-RIPL, purified (Glutathione Sepharose 4B, GST removed by TEV proteinase, SEC)
T2 sequence: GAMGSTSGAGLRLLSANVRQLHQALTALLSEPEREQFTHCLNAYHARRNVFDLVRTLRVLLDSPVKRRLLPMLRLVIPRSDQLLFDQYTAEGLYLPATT

T3: whirlin PDZ1-Hp (aa residues 137-246) (mouse, UniProt Q80VW5-1 137-246)
T3 construct: extra 7 aa at the N-terminus of all recombinant proteins of the study; whirlin, residues 137-246: PDZ1 with its hairpin extension Hp1; also called PDZ1 + Hp1; whirlin PDZ1-Hp1 fragment
T3 sequence: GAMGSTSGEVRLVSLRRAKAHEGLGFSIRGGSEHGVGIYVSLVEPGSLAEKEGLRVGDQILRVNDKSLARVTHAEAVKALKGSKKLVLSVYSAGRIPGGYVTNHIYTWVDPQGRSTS

T4: whirlin-PDZ2 (aa residues 272-368) (mouse, UniProt Q80VW5-1 272-368)
T4 construct: extra 7 aa at the N-terminus of all recombinant proteins of the study; whirlin, residues 272-368: PDZ2 domain; source: E. coli BL21 (DE3) codonPlus-RIPL, purified (Glutathione Sepharose 4B, GST removed by TEV proteinase, SEC)
T4 sequence: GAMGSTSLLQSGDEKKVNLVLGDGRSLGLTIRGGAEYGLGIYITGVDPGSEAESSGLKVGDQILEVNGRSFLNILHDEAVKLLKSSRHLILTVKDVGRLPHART

T5: whirlin-NTR-PDZ1-Hp1 (aa residues 2-265) (mouse, UniProt Q80VW5-1 2-265)
T5 construct: extra 7 aa at the N-terminus of all recombinant proteins of the study; whirlin (long isoform, L-whirlin), residues 2-265: NTR (with HHD1), PDZ1 and hairpin Hp1; The methods call the 2-265 construct whirlin-NTR-PDZ1; also called NTR-PDZ1-Hp1 whirlin fragment; Nter-PDZ1-Hp1; source: E. coli BL21 (DE3) codonPlus-RIPL, purified (Glutathione Sepharose 4B, GST removed by TEV proteinase, SEC)
T5 sequence: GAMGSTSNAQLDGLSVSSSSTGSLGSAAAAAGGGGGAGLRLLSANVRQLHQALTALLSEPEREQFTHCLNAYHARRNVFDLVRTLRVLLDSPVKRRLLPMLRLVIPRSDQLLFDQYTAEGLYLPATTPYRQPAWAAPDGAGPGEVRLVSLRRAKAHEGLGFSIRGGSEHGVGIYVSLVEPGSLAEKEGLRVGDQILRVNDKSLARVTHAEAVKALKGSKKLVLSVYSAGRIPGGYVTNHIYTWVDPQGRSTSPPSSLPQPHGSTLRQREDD

T6: whirlin-NTR (aa residues 2-147) (mouse, UniProt Q80VW5-1 2-147)
T6 construct: extra 7 aa at the N-terminus of all recombinant proteins of the study; also called entire NTR of whirlin (containing the HHD1 domain); source: E. coli BL21 (DE3) codonPlus-RIPL, purified (Glutathione Sepharose 4B, GST removed by TEV proteinase, SEC)
T6 sequence: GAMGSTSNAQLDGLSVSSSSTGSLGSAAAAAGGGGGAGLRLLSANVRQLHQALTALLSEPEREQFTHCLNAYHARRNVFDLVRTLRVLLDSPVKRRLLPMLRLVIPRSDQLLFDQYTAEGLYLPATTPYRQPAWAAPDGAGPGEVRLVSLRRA


Key:
Assay in all cases: SPR; ProteOn XPR 36; N-terminally biotinylated peptides captured on a Neutravidin NLC sensor chip, whirlin fragments flowed as analytes at 20 μL/min for 2 min; 250 mM NaCl, 50 mM Tris pH 7.5, 0.5 mM TCEP; steady-state fit Req = (Rmax*C)/(Kd+C); mean of three experiments; Figure 4B shows the responses at 10 μM
Conditions in all cases: both partners purified
[1] = biological target: T1, whirlin-PDZ3 (aa residues 821-915)
[2] = biological target: T2, whirlin-HHD1 (aa residues 30-121)
[3] = biological target: T3, whirlin PDZ1-Hp (aa residues 137-246)
[4] = biological target: T4, whirlin-PDZ2 (aa residues 272-368)
[5] = biological target: T5, whirlin-NTR-PDZ1-Hp1 (aa residues 2-265)
[6] = biological target: T6, whirlin-NTR (aa residues 2-147)

Kd [1] [µM] | Kd [2] [mM] | Kd [3] [µM] | Kd [4] [µM] | Kd [5] [µM] | Kd [6] [mM] | Binder
> 1000 | > 1 | 33 | > 1000 | 8.5 | > 1 | {Biotin-TTDS}-GANSEQYNTAL (C-terminal 11 aa of protocadherin-15 isoform CD2, including the PBM; source: synthetic peptide (Eurogentec); not shown: biotin, N-terminal, kept) [PCDH15-CD2 C-terminal peptide (biotin-TTDS-GANSEQYNTAL)]
230 | > 1 | 11 | 460 | 4.2 | > 1 | {Biotin-TTDS}-MGPWNSLHIPMTKL (C-terminal 14 aa of protocadherin-15 isoform CD3, including the PBM; source: synthetic peptide (Eurogentec); not shown: biotin, N-terminal, kept) [PCDH15-CD3 C-terminal peptide (biotin-TTDS-MGPWNSLHIPMTKL)]
> 1000 | > 1 | 29 | > 1000 | 8.8 | > 1 | {Biotin-TTDS}-GIDVQPHSQSTSL (C-terminal 13 aa of protocadherin-15 isoform CD1, including the PBM; source: synthetic peptide (Eurogentec); not shown: biotin, N-terminal, kept) [PCDH15-CD1 C-terminal peptide (biotin-TTDS-GIDVQPHSQSTSL)]
